Patent US20110002929A1 (Ablynx, published 2011)
Like-named read-outs stand apart in the source and are kept apart here.

Assays:
mouse RANK-L = molecular target: T1, mouse RANK-L (mouse, UniProt O35235 158-316, limits assumed); experiment: ELISA, set-up as for human RANK-L
T1 construct: also called murine RANK-L
T1 sequence (looked up): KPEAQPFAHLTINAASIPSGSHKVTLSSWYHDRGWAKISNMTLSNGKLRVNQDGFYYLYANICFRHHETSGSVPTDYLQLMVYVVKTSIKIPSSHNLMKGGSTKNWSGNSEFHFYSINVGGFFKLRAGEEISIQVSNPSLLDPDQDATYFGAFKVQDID
Protocol: (§1) Therefore 2 μg/ml neutravidin was coated overnight at 4° C. The plates were washed 5 times with 300 μl PBS and then blocked with […] 1% casein/PBS for 2 hours at room temperature. […] After extensive washing with PBS, varying concentrations of Nanobodies starting from 500 nM to 160 pM diluted in 1% casein/PBS were added to the wells and the plates were incubated for 1 hour at room temperature. Bound Nanobodies were detected by subsequent incubations of a primary mouse anti-myc antibody and a secondary anti mouse-HRP conjugate (DAKO, Glostrup, Denmark) and using TMB-H2O2 (Pierce, Rockford, Ill., USA) substrate cocktail. The reaction was stopped with H₂SO₄ and the OD was read at 450 nm.

human RANK-L [1] = molecular target: T2, human RANK-L (human, UniProt O14788 140-317, limits assumed); experiment: ELISA (ED50), biotin-hRANK-L on neutravidin
T2 construct: Soluble protein, used coated, biotinylated or labelled in ELISA, AlphaScreen, FMAT and Biacore; also called hRANK-L; soluble human RANK-L
T2 sequence (looked up): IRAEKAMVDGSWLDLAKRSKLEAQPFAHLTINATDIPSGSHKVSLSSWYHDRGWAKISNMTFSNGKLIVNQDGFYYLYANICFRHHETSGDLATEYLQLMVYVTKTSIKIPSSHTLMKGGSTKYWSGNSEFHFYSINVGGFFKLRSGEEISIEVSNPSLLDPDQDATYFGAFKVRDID
Protocol: as §1

human RANK-L [2] = molecular target: T2, human RANK-L; experiment: AlphaScreen, biotin-hRANK-L / RANK-huFc beads
Protocol: To this mixture, the RANK acceptor beads and the streptavidin donor beads were added and further incubated for 1 hour at room temperature. Fluorescence was measured by reading plates on the EnVision Multilabel Plate Reader (Perkin Elmer) using an excitation wavelength of 680 nm and an emission wavelength of 520 nm.

human RANK-L [3] = molecular target: T2, human RANK-L; experiment: AlphaScreen, biotin-hRANK-L / RANK-huFc beads; remark: listed apart in the source
human RANK-L [4] = molecular target: T2, human RANK-L; experiment: SPR Biacore 3000, hRANK-L on CM5, 100 nM Nanobody
Protocol: (§2) Binding kinetics of the humanized versions of Nanobodu RANL13 were also analysed by Surface Plasmon Resonance (Biacore 3000). […] Nanobody binding was assessed at one concentration (100 nM). Each Nanobody was injected for 4 minutes at a flow rate of 45 μl/min to allow binding to chip-bound antigen. Next, binding buffer without Nanobody was sent over the chip at the same flow rate to allow spontaneous dissociation of bound Nanobody.

human RANK-L [5] = molecular target: T2, human RANK-L; experiment: SPR Biacore 3000, hRANK-L on CM5, 100 nM Nanobody; only indicative (one concentration)
Protocol: as §2

human RANK-L [6] = molecular target: T2, human RANK-L; experiment: AlphaScreen, biotin-hRANK-L / RANK-huFc beads; remark: listed apart in the source

Row | Binder | binding result (mouse RANK-L) | EC50 (human RANK-L [1]) | IC50 (human RANK-L [2]) | IC50 (human RANK-L [3]) | koff (human RANK-L [4]) | Kd (human RANK-L [5]) | kon (human RANK-L [5]) | IC50 (human RANK-L [6])
1 | RANKL23 (VHH, also called 9H5; not shown: c-myc and His6 tags) VHH: EVQLVESGGGLVQAGGSLRLSCAASGLTTVYTMAWFRQAPGKEREFVAAITRSGKTTYYADSVKGRFTISRDNAKNTVNLQMNSLKPDDTAVYYCAAKALLGMTNPAGYEYWGQETQVTVSS | no binding (tested: 500 nM to 160 pM) | 0.679 nM | 3.53 nM | – | – | – | – | –
2 | RANKL13basic (VHH, Humanized variant of RANKL13; also called RANKL13humbasic) VHH: EVQLVESGGGLVQPGGSLRLSCAASGRTFRSYPMGWFRQAPGKGREFVASITGSGGSTYYADSVKGRFTISRDNAKNTLYLQMNSLRPEDTAVYSCAAYIRPDTYLSRDYRKYDYWGQGTLVTVSS | – | – | – | 0.159 nM | 0.000189 s⁻¹ | 0.214 nM | 885000 M⁻¹ s⁻¹ | –
3 | RANKL13hum1 (VHH) VHH: EVQLVESGGGLVQPGGSLRLSCAASGFTFRSYPMGWFRQAPGKGREFVASITGSGGSTYYADSVKGRFTISRDNAKNTLYLQMNSLRPEDTAVYSCAAYIRPDTYLSRDYRKYDYWGQGTLVTVSS | – | – | – | 0.123 nM | 0.000145 s⁻¹ | 0.106 nM | 1.37e+06 M⁻¹ s⁻¹ | –
4 | RANKL13hum2 (VHH, name in Kabat numbering) VHH: EVQLVESGGGLVQPGGSLRLSCAASGRTFSSYPMGWFRQAPGKGREFVASITGSGGSTYYADSVKGRFTISRDNAKNTLYLQMNSLRPEDTAVYSCAAYIRPDTYLSRDYRKYDYWGQGTLVTVSS | – | – | – | 0.191 nM | 0.000232 s⁻¹ | 0.88 nM | 264000 M⁻¹ s⁻¹ | –
5 | RANKL17 (VHH, not shown: c-myc and His6 tags) VHH: EVQLVESGGGLVQVGDSLRLSCEASGRSRFSTYVMGWFRQAPGKEREFVAAVSWSSGNAYYIDSAKGRFATSRDTAKNIMYLQMNSLKPEDTAVYTCAAGRGYGLLSEYTQAPRYDYWGQGTQVTVSS | no binding (tested: 500 nM to 160 pM) | 0.453 nM | 0.737 nM | – | – | – | – | –
6 | RANKL4 (VHH, not shown: c-myc and His6 tags) VHH: KVQLVESGGGLVQTGDSLRLSCAASGRAIGSYAMGWFRQAPGKEREFVAVINYRGSSLKYADRVKGRFTISRDNAKNMVYLQMNSLKPDDTAVYYCAAQTSGADFGTTPQRYTYWGQGTQVTVSS | no binding (tested: 500 nM to 160 pM) | 0.38 nM | 0.582 nM | – | – | – | – | –
7 | RANKL133 (VHH, Bivalent Nanobody; also called RANKL13-30GS-RANKL13) EVQLVESGGGLVQAGGSLRLSCAASGRTFRSYPMGWFRQAPGKEREFVASITGSGGSTYYADSVKGRFTISRDNAKNTVYLQMNSLRPEDTAVYSCAAYIRPDTYLSRDYRKYDYWGQGTQVTVSSGGGGSGGGGSGGGGSGGGGSGGGGSGGGGSEVQLVESGGGLVQAGGSLRLSCAASGRTFRSYPMGWFRQAPGKEREFVASITGSGGSTYYADSVKGRFTISRDNAKNTVYLQMNSLRPEDTAVYSCAAYIRPDTYLSRDYRKYDYWGQGTQVTVS | – | – | – | – | – | – | – | 0.026 nM
8 | RANKL16 (VHH, not shown: c-myc and His6 tags) VHH: EVQLVESGGGLVQAGGSLRLSCVASRRTFSSYAMGWFRQVPGKERDFVAAISTGSITIYGDSVKGRFTISRDNAKNTVYLQMNSLKPEDTAVYYCAAGKREPYLRQYTASNPYDYWGQGTQVTVSS | no binding (tested: 500 nM to 160 pM) | 0.953 nM | 2.25 nM | – | – | – | – | –
9 | RANKL21 (VHH, not shown: c-myc and His6 tags) VHH: EVQLVESGGGLVQAGGSLRLSCVASRRTFNSYAVGWFRQVPGEERDFVAAISTGSVTIYADSVKGRFTISRDNAKNTVYLQMNSLKPEDTAVYYCAAGNREPYLRQYTASNPYDYWGQGTQVTVSS | no binding (tested: 500 nM to 160 pM) | 0.861 nM | 1.58 nM | – | – | – | – | –
10 | RANKL1 (VHH, not shown: c-myc and His6 tags) VHH: EVQLVESGGGLVQAGGSLRLSCAVSGRTFSSSTMAWFRQPPGGERDFVASISTSGTRTLYADSVKGRFTISRDNAKSTGYLQMNSLKPEDTAVYFCAAVNRRGWEFWRLASGYDYWGLGAQVTVSS | no binding (tested: 500 nM to 160 pM) | 0.619 nM | 0.739 nM | – | – | – | – | –
11 | RANKL19 (VHH, not shown: c-myc and His6 tags) VHH: EVQLVESGGGLVQAGDSLRLSCAASGRTVTMGWFRQAPGKEREFVASITGSGSVTNYADSVKGRFTISRDNAKNTVFLQMNSLKPEDTAVYYCAAYLPSPYYSSYYDSTKYEYWGQGTQVTVSS | no binding (tested: 500 nM to 160 pM) | 0.506 nM | 2.24 nM | – | – | – | – | –
12 | RANKL20 (VHH, not shown: c-myc and His6 tags) VHH: EVQLVESGGGLVQAGDSLRLSCAASGRTFTMGWFRQAPGTEREFVAAISGSGKITNYADSVKGRFTISRDHAKNTVFLQMDSLKPEDTAVYYCAGYLRSPYYSSFYDSAKYEYWGQGTQVTVSS | no binding (tested: 500 nM to 160 pM) | 0.306 nM | 1.36 nM | – | – | – | – | –
13 | RANKL12 (VHH, not shown: c-myc and His6 tags) VHH: EVQLVESGGGWMQAGGSLRLSCAASGRTFTMAWFRQAPGKEREFVAAITGSGRSTYYTDSVKGRFTISRDNAKNTAYLQMKSLKPEDTAVYYCAGLRGLGLEYDSAKSYSYWGQGTQVTVSS | no binding (tested: 500 nM to 160 pM) | 0.399 nM | 0.627 nM | – | – | – | – | –
14 | RANKL22 (VHH, also called 7D12; not shown: c-myc and His6 tags) VHH: EVQLVESGGGLMQTGGSLRLSCAASERTSRNYGMGWFRQAPGKEREFVAAITSAGGTTYYGDFVKGRFTISRDSAKYTVYLQMNSLKPEDTAVYWCAAKLQIGGRWHNLNDYGYRGQGTQVTVSS | no binding (tested: 500 nM to 160 pM) | 0.379 nM | 3.02 nM | – | – | – | – | –
15 | RANKL11 (VHH, not shown: c-myc and His6 tags) VHH: EVQLVESGGGLVQAGGSLRLSCAASGRTFSSKTMGWFRQPPGNEREFVAAITPTSRTTYYADSVKGRFTISRDNAKNTVSLQMNSLKFEDTAAYYCVAVRRYGSPPHDGSSYEYWGQGTQVTVSS | no binding (tested: 500 nM to 160 pM) | 0.517 nM | 1.17 nM | – | – | – | – | –
16 | RANKL8 (VHH, not shown: c-myc and His6 tags) VHH: EVQLVESGGGSVQPGGSLRLSCAASGGTFSRYAMGWFRQAPGKEREFVSAISVGGTYQYYVDSVKGRFTISRDNAESTVYLQMNSLKPEDTAVYYCAGDASPYGYLREYTATRFDYWGQGTQVTVSS | no binding (tested: 500 nM to 160 pM) | 0.652 nM | 0.755 nM | – | – | – | – | –
17 | RANKL14 (VHH, not shown: c-myc and His6 tags) VHH: EVQLVESGGGLVQAGGSLRLSCAASGRTSSYYTMSWFRQDPGKEREFVAAVPLSGNTYYADPVRGRFTISRDNAKNTADLQMNSLKPEDTAVYYCAARASGSIYNRGSYAYWGQGTQVTVSS | no binding (tested: 500 nM to 160 pM) | 0.574 nM | 1.75 nM | – | – | – | – | –
18 | RANKL7 (VHH, not shown: c-myc and His6 tags) VHH: EVQLVESEGGPVQSGGSLRLSCAASGRTFSVSTIAWFRQAPGEGREFVAAIYPSGRNAYVADSVKGRFTISRDNAKKTVYLQMNSLKPEDTAAYYCAAHQPSGSYYSAEAYAYWGQGTQVTVSS | no binding (tested: 500 nM to 160 pM) | 0.376 nM | 0.459 nM | – | – | – | – | –
